Values joined by “and” are separate entries in the source; they are usually repeats but may differ in a detail not shown here. Identical values can stand only once. Blank lines part the entries; values can stand above or below the molecule they belong to.
Columns and labels:
Assay in all cases: cell-based or functional assay
[1] = biological target: mHTTex1-72Q-eGFP (human) (UniProt P42858)
[2] = biological target: human α-synuclein protein (human)
[3] = biological target: human α-synuclein-GFP (human)

Chain of UniProt P42858 (P42858 other isoform, or with tags, fused parts or gaps): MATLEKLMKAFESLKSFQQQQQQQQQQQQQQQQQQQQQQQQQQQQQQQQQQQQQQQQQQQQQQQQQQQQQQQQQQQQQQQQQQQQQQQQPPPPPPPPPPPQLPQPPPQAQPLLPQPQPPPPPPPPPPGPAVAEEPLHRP

soluble mHTTex1-72Q-GFP by western blot (EM48/GAPDH, normalized to EV-CON) (% relative to control) [1]: 75 to 100
Molecule: scFv-C4-hPEST

soluble mHTTex1-72Q-GFP by western blot (EM48/GAPDH, normalized to EV-CON) [1]: 50 to 75 % of control
Molecule: scFv-C4-hPEST-E428A-E430A-E431A

soluble mHTTex1-72Q-GFP by western blot (EM48/GAPDH, normalized to EV-CON) [1]: 50 to 75 % of control
Molecule: scFv-C4-hPEST-E444A

soluble mHTTex1-72Q-GFP by western blot (EM48/GAPDH, normalized to EV-CON) [1]: 25 % of control and 0 % of control
Molecule: scFv-C4-hPEST-S440A

soluble mHTTex1-72Q-GFP by western blot (EM48/GAPDH, normalized to EV-CON) (% relative to control) [1]: 75 to 100
Molecule: scFv-C4-hPEST-T436A

reduction of endogenous synuclein by western blot, 3×SNCA cortical cultures given conditioned media [2]: 30%
B1: SS-PEN-DB1-PEST (VHH)
VHH: MEFGLSWLFLVAILKGVQGRQIKIWFQNRRMKWKKSRAEVQLQASGGGFVQPGGSLRLSCAASGFTSWEDTMGWFRQAPGKEREFVSAISFDANDLSDTSVYYADSVKGRFTISRDNSKNTVYLQMNSLRAEDTATYYCAVASFEILLYGESLHIYWGQGTQVTVSSAAAYPYDVPDYANPDFPPEVEEQDASTLPVSCAWESGMKRHRAACASASINV

reduction of endogenous α-synuclein by western blot relative to SS-N77K-hP control, 3×SNCA cortical cultures [2]: 40%
B2: SS-435b-N77D-hP (VHH)
VHH: VQLVESGGGGLVQPGGSLRLSCVTPGGIFSDYAMGWYRQAPGKQRELVADITVSDTTRYSDPVKGRFTISRDNAKDMVYLQMNSLKPEDAAIYTCNAQKWEDRYGSSERYDYWGQGTQVTVSS

reduction of endogenous synuclein by western blot, 3×SNCA cortical cultures given conditioned media [2]: 40%
reduction of endogenous α-synuclein by western blot relative to SS-N77K-hP control, 3×SNCA cortical cultures [2]: 40%
reduction of α-Syn˜eGFP by western blot, recipient ST14A cells given conditioned media [3]: 20%
B3: SS-PEN-N77D-PEST (VHH)
VHH: MEFGLSWLFLVAILKGVQGRQIKIWFQNRRMKWKKSRQVQLVESGGGGLVQPGGSLRLSCVTPGGIFSDYAMGWYRQAPGKQRELVADITVSDTTRYSDPVKGRFTISRDNAKDMVYLQMNSLKPEDAAIYTCNAQKWEDRYGSSERYDYWGQGTQVTVSSAHHSEDPAAAYPYDVPDYNPDFPPEVEEQDASTLPVSCAWESGMKRHRAACASASINV

— US20250326824A1
